Measurements reported in patent publication US20250388666A1 (BRIGHAM AND WOMEN S HOSPITAL, published 2025).
“And” between values parts separate entries of the source, which are not always exact repeats. Identical values can stand only once.

T1: CEACAM1 (Sino Biological) (human, UniProt P13688 35-428, limits assumed)
T1 construct: may be the same as CEACAM1-HIS; also called hCEACAM1; biotinylated soluble CEACAM1
T1 sequence: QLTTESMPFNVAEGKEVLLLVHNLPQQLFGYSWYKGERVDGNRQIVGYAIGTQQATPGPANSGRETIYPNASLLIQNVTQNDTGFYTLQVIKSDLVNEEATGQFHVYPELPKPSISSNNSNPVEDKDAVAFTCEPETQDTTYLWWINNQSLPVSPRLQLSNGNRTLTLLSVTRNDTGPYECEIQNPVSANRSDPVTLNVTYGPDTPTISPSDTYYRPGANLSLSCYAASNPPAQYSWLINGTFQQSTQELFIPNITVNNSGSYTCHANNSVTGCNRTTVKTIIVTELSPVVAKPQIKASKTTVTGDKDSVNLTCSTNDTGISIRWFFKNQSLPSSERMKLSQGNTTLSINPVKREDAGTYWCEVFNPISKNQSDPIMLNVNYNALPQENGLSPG


The binders below were run against T1, CEACAM1 (Sino Biological) (assay: SPR single-cycle).
Method in brief: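 Humanized affinity-matured IgGs from crude supernatants captured on Protein A to ~100 RU, with CEACAM1 analyte injected at 25–100 nM (three-point, two-fold) in HBS-P+ without regeneration. 200 s association per injection, 300 s single dissociation; reference-channel and blank subtracted.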

| Binder | Kd | fold better than Parent (KD) |
| --- | --- | --- |
| He13/L20 (antibody, IgG4, V domains shown, IgG4 S241P, kappa) VH: EVQLLESGGGLVQPGGSLRLSCAASGFSFSDYYLYWVRQAPGKGLEWVATISVGGGQTSYADSVKGRFTISRDNSKNTLYLQMNSLRAEDTAMYYCTRGLYYGPSWLAYWGQGTLVTVSS VL: DIVMTQSPDSLAVSLGERATINCKSSQSLLNSANQKNYLAWYQQKPGQPPKLLIYFASTRESGVPDRFSGSGSGTDFTLTISSLQAEDVAVYYCQSHFPYPLTFGGGTKVEIK | 109 nM | 1.46 fold |
| He14/L3 (antibody, IgG4, V domains shown, IgG4 S241P, kappa) VH: EVQLLESGGGLVQPGGSLRLSCAASGFSFSDYYLYWVRQAPGKGLEWVATISVGGGQTSYADSVKGRFTISRDNSKNTLYLQMNSLRAEDTAMYYCTRGLYYGPSWVAYWGQGTLVTVSS VL: DIVMTQSPDSLAVSLGERATINCKSSQSLLNSANQKNYLAWYQQKPGQPPKLLIYFASTRESGVPDRFSGSGSGTDFTLTISSLQAEDVAVYYCQSHFPFPFTFGGGTKVEIK | 107 nM | 1.49 fold |
| He14/L17 (antibody, IgG4, V domains shown, IgG4 S241P, kappa) VH: EVQLLESGGGLVQPGGSLRLSCAASGFSFSDYYLYWVRQAPGKGLEWVATISVGGGQTSYADSVKGRFTISRDNSKNTLYLQMNSLRAEDTAMYYCTRGLYYGPSWVAYWGQGTLVTVSS VL: DIVMTQSPDSLAVSLGERATINCKSSQSLLNSANQKNYLAWYQQKPGQPPKLLIYFASTRESGVPDRFSGSGSGTDFTLTISSLQAEDVAVYYCQSHYPYPYTFGGGTKVEIK | 97 nM | 1.64 fold |
| He13/Parent VL (antibody, IgG4, V domains shown, IgG4 S241P, kappa) VH: EVQLLESGGGLVQPGGSLRLSCAASGFSFSDYYLYWVRQAPGKGLEWVATISVGGGQTSYADSVKGRFTISRDNSKNTLYLQMNSLRAEDTAMYYCTRGLYYGPSWLAYWGQGTLVTVSS VL: not shown | 91 nM | 1.74 fold |
| He14/L4#2 (antibody, IgG4, V domains shown, IgG4 S241P, kappa) VH: EVQLLESGGGLVQPGGSLRLSCAASGFSFSDYYLYWVRQAPGKGLEWVATISVGGGQTSYADSVKGRFTISRDNSKNTLYLQMNSLRAEDTAMYYCTRGLYYGPSWVAYWGQGTLVTVSS VL: DIVMTQSPDSLAVSLGERATINCKSSQSLLNSANQKNYLAWYQQKPGQPPKLLIYFASTRESGVPDRFSGSGSGTDFTLTISSLQAEDVAVYYCQSHYPYPYTFGGGTKVEIK | 396 nM | 1.39 fold |
| He14/L16 (antibody, IgG4, V domains shown, IgG4 S241P, kappa) VH: EVQLLESGGGLVQPGGSLRLSCAASGFSFSDYYLYWVRQAPGKGLEWVATISVGGGQTSYADSVKGRFTISRDNSKNTLYLQMNSLRAEDTAMYYCTRGLYYGPSWVAYWGQGTLVTVSS VL: DIVMTQSPDSLAVSLGERATINCKSSQSLLNSANQKNYLAWYQQKPGQPPKLLIYFASTRESGVPDRFSGSGSGTDFTLTISSLQAEDVAVYYCQSHYPYPFTFGGGTKVEIK | 93 nM | 1.7 fold |
| He14/L2 (antibody, IgG4, V domains shown, IgG4 S241P, kappa) VH: EVQLLESGGGLVQPGGSLRLSCAASGFSFSDYYLYWVRQAPGKGLEWVATISVGGGQTSYADSVKGRFTISRDNSKNTLYLQMNSLRAEDTAMYYCTRGLYYGPSWVAYWGQGTLVTVSS VL: DIVMTQSPDSLAVSLGERATINCKSSQSLLNSANQKNYLAWYQQKPGQPPKLLIYFASTRESGVPDRFSGSGSGTDFTLTISSLQAEDVAVYYCQSHYPFPYTFGGGTKVEIK | 102 nM | 1.56 fold |
| He14/L6 (antibody, IgG4, V domains shown, IgG4 S241P, kappa) VH: EVQLLESGGGLVQPGGSLRLSCAASGFSFSDYYLYWVRQAPGKGLEWVATISVGGGQTSYADSVKGRFTISRDNSKNTLYLQMNSLRAEDTAMYYCTRGLYYGPSWVAYWGQGTLVTVSS VL: DIVMTQSPDSLAVSLGERATINCKSSQSLLNSANQKNYLAWYQQKPGQPPKLLIYFASTRESGVPDRFSGSGSGTDFTLTISSLQAEDVAVYYCQSHYPFSFTFGGGTKVEIK | 111 nM | 1.43 fold |

Second part, the binder after the results:

| Kd | fold better than Parent (KD) | Binder |
| --- | --- | --- |
| 105 nM | 1.51 fold | He13/L6 (antibody, IgG4, V domains shown, IgG4 S241P, kappa) VH: EVQLLESGGGLVQPGGSLRLSCAASGFSFSDYYLYWVRQAPGKGLEWVATISVGGGQTSYADSVKGRFTISRDNSKNTLYLQMNSLRAEDTAMYYCTRGLYYGPSWLAYWGQGTLVTVSS VL: DIVMTQSPDSLAVSLGERATINCKSSQSLLNSANQKNYLAWYQQKPGQPPKLLIYFASTRESGVPDRFSGSGSGTDFTLTISSLQAEDVAVYYCQSHYPFSFTFGGGTKVEIK |
| 91 nM | 1.75 fold | He14/L18 (antibody, IgG4, V domains shown, IgG4 S241P, kappa) VH: EVQLLESGGGLVQPGGSLRLSCAASGFSFSDYYLYWVRQAPGKGLEWVATISVGGGQTSYADSVKGRFTISRDNSKNTLYLQMNSLRAEDTAMYYCTRGLYYGPSWVAYWGQGTLVTVSS VL: DIVMTQSPDSLAVSLGERATINCKSSQSLLNSANQKNYLAWYQQKPGQPPKLLIYFASTRESGVPDRFSGSGSGTDFTLTISSLQAEDVAVYYCQSHFPYPFTFGGGTKVEIK |
| 103 nM | 1.54 fold | He13/L18 (antibody, IgG4, V domains shown, IgG4 S241P, kappa) VH: EVQLLESGGGLVQPGGSLRLSCAASGFSFSDYYLYWVRQAPGKGLEWVATISVGGGQTSYADSVKGRFTISRDNSKNTLYLQMNSLRAEDTAMYYCTRGLYYGPSWLAYWGQGTLVTVSS VL: DIVMTQSPDSLAVSLGERATINCKSSQSLLNSANQKNYLAWYQQKPGQPPKLLIYFASTRESGVPDRFSGSGSGTDFTLTISSLQAEDVAVYYCQSHFPYPFTFGGGTKVEIK |
| 105 nM | 1.51 fold | He13/L16 (antibody, IgG4, V domains shown, IgG4 S241P, kappa) VH: EVQLLESGGGLVQPGGSLRLSCAASGFSFSDYYLYWVRQAPGKGLEWVATISVGGGQTSYADSVKGRFTISRDNSKNTLYLQMNSLRAEDTAMYYCTRGLYYGPSWLAYWGQGTLVTVSS VL: DIVMTQSPDSLAVSLGERATINCKSSQSLLNSANQKNYLAWYQQKPGQPPKLLIYFASTRESGVPDRFSGSGSGTDFTLTISSLQAEDVAVYYCQSHYPYPFTFGGGTKVEIK |
| 372 nM and 159 nM |  | He13/L17 (antibody, IgG4, V domains shown, IgG4 S241P, kappa) VH: EVQLLESGGGLVQPGGSLRLSCAASGFSFSDYYLYWVRQAPGKGLEWVATISVGGGQTSYADSVKGRFTISRDNSKNTLYLQMNSLRAEDTAMYYCTRGLYYGPSWLAYWGQGTLVTVSS VL: DIVMTQSPDSLAVSLGERATINCKSSQSLLNSANQKNYLAWYQQKPGQPPKLLIYFASTRESGVPDRFSGSGSGTDFTLTISSLQAEDVAVYYCQSHYPYPYTFGGGTKVEIK |
| 129 nM | 1.23 fold | He13/L19 (antibody, IgG4, V domains shown, IgG4 S241P, kappa) VH: EVQLLESGGGLVQPGGSLRLSCAASGFSFSDYYLYWVRQAPGKGLEWVATISVGGGQTSYADSVKGRFTISRDNSKNTLYLQMNSLRAEDTAMYYCTRGLYYGPSWLAYWGQGTLVTVSS VL: DIVMTQSPDSLAVSLGERATINCKSSQSLLNSANQKNYLAWYQQKPGQPPKLLIYFASTRESGVPDRFSGSGSGTDFTLTISSLQAEDVAVYYCQSHIYPNFTFGGGTKVEIK |
| 87 nM | 1.83 fold | He14/L19 (antibody, IgG4, V domains shown, IgG4 S241P, kappa) VH: EVQLLESGGGLVQPGGSLRLSCAASGFSFSDYYLYWVRQAPGKGLEWVATISVGGGQTSYADSVKGRFTISRDNSKNTLYLQMNSLRAEDTAMYYCTRGLYYGPSWVAYWGQGTLVTVSS VL: DIVMTQSPDSLAVSLGERATINCKSSQSLLNSANQKNYLAWYQQKPGQPPKLLIYFASTRESGVPDRFSGSGSGTDFTLTISSLQAEDVAVYYCQSHIYPNFTFGGGTKVEIK |
| 102 nM | 1.56 fold | He14/L5 (antibody, IgG4, V domains shown, IgG4 S241P, kappa) VH: EVQLLESGGGLVQPGGSLRLSCAASGFSFSDYYLYWVRQAPGKGLEWVATISVGGGQTSYADSVKGRFTISRDNSKNTLYLQMNSLRAEDTAMYYCTRGLYYGPSWVAYWGQGTLVTVSS VL: DIVMTQSPDSLAVSLGERATINCKSSQSLLNSANQKNYLAWYQQKPGQPPKLLIYFASTRESGVPDRFSGSGSGTDFTLTISSLQAEDVAVYYCQSHYPFAFTFGGGTKVEIK |
| 114 nM | 1.39 fold | He14/L20 (antibody, IgG4, V domains shown, IgG4 S241P, kappa) VH: EVQLLESGGGLVQPGGSLRLSCAASGFSFSDYYLYWVRQAPGKGLEWVATISVGGGQTSYADSVKGRFTISRDNSKNTLYLQMNSLRAEDTAMYYCTRGLYYGPSWVAYWGQGTLVTVSS VL: DIVMTQSPDSLAVSLGERATINCKSSQSLLNSANQKNYLAWYQQKPGQPPKLLIYFASTRESGVPDRFSGSGSGTDFTLTISSLQAEDVAVYYCQSHFPYPLTFGGGTKVEIK |
| 88 nM | 1.8 fold | He14/Parent VL (antibody, IgG4, V domains shown, IgG4 S241P, kappa) VH: EVQLLESGGGLVQPGGSLRLSCAASGFSFSDYYLYWVRQAPGKGLEWVATISVGGGQTSYADSVKGRFTISRDNSKNTLYLQMNSLRAEDTAMYYCTRGLYYGPSWVAYWGQGTLVTVSS VL: not shown |
| 93 nM | 1.7 fold | He14/L4 #1 (antibody, IgG4, V domains shown, IgG4 S241P, kappa) VH: EVQLLESGGGLVQPGGSLRLSCAASGFSFSDYYLYWVRQAPGKGLEWVATISVGGGQTSYADSVKGRFTISRDNSKNTLYLQMNSLRAEDTAMYYCTRGLYYGPSWVAYWGQGTLVTVSS VL: DIVMTQSPDSLAVSLGERATINCKSSQSLLNSANQKNYLAWYQQKPGQPPKLLIYFASTRESGVPDRFSGSGSGTDFTLTISSLQAEDVAVYYCQSHFPYYYTFGGGTKVEIK |
